In general, koff refers to the rate constant with which the complex falls apart. Low values mean slow dissociation, high ones fast dissociation. A word on the kon: it is a measure of how fast the partners come together. A low value points to slower complex formation.

From patent US20240368250A1 (Ablynx, published 2024) come the findings set out here.

The target in experiment [1] is T1, Human FcRn (biotinylated human FcRn) (human, UniProt P61769 21-119).
T1 construct: Biotinylated human FcRn captured on a Series S Sensor Chip SA; also called human neonatal Fc receptor; hFcRn
Description: SPR Biacore 8K+, biotinylated hFcRn on SA chip (~1000-2000 RU), pH 6.0, with 30 uM HSA, bivalent analyte fit (kd1). On the technique in general: SPR reads the build-up and loss of mass on a sensor chip optically.

In experiment [2] the target is T1, Human FcRn (biotinylated human FcRn). As to the kind of experiment: SPR Biacore 8K+, biotinylated hFcRn on SA chip (~1000-2000 RU), pH 6.0, no HSA, 1:1 fit.
Experiment [3] shares this target. As to the kind of experiment: SPR Biacore 8K+, biotinylated hFcRn on SA chip (~600 RU), pH 6.0, bivalent analyte fit.
Experiment [4] has the same target. As to the kind of experiment: SPR Biacore 8K+, biotinylated hFcRn on SA chip (~600 RU), pH 6.0, bivalent analyte fit (ka1).
The target is the same in experiment [5]. Description: SPR Biacore 8K+, biotinylated hFcRn on SA chip (~600 RU), pH 6.0, bivalent analyte fit (kd1).
The target is the same in experiment [6]. Description: SPR Biacore 8K+, biotinylated hFcRn on SA chip (~1000-2000 RU), pH 6.0, no HSA, bivalent analyte fit (KD1).
For experiment [7] the target is unchanged. Description: SPR Biacore 8K+, biotinylated hFcRn on SA chip (~600 RU), pH 6.0, bivalent analyte fit (KD1).
For experiment [8] the target is unchanged. Description: SPR Biacore 8K+, biotinylated hFcRn on SA chip (~1000-2000 RU), pH 6.0, no HSA, bivalent analyte fit (ka1).
For experiment [9] the target is unchanged. Description: SPR Biacore 8K+, biotinylated hFcRn on SA chip (~1000-2000 RU), pH 6.0, with 30 uM HSA, bivalent analyte fit (KD1).
For experiment [10] the target is unchanged. Description: SPR Biacore 8K+, biotinylated hFcRn on SA chip (~1000-2000 RU), pH 6.0, no HSA, bivalent analyte fit (kd1).
For experiment [11] the target is unchanged. Description: SPR Biacore 8K+, biotinylated hFcRn on SA chip (~1000-2000 RU), pH 6.0, no HSA, bivalent analyte fit.
Experiment [12] has the same target. As to the kind of experiment: SPR Biacore 8K+, biotinylated hFcRn on SA chip (~1000-2000 RU), pH 6.0, with 30 uM HSA, bivalent analyte fit.
For experiment [13] the target is unchanged. As to the kind of experiment: SPR Biacore 8K+, biotinylated hFcRn on SA chip (~1000-2000 RU), pH 6.0, with 30 uM HSA, bivalent analyte fit (ka1).
Experiment [14] shares this target. Description: SPR Biacore 8K+, biotinylated hFcRn on SA chip (~700 RU), pH 6.0, bivalent analyte fit (ka1).
Description: (§1) The Nanobody®VHH-IgG1 Fc/IgG1 proteins were characterized by affinity determination for human FcRn at pH 6.0 on the Biacore 8K+ instrument. For affinity measurements, ˜700 RU of biotinylated human FcRn was captured on a Series S Sensor Chip SA. […] Evaluation of the sensorgrams was based on the Bivalent Analyte fit.
For experiment [15] the target is unchanged. Description: SPR Biacore 8K+, biotinylated hFcRn on SA chip (~700 RU), pH 6.0, bivalent analyte fit (kd1).
Description: as §1
For experiment [16] the target is unchanged. Description: SPR Biacore 8K+, biotinylated hFcRn on SA chip (~700 RU), pH 6.0, bivalent analyte fit (KD1).
Description: as §1
Experiment [17] shares this target. As to the kind of experiment: SPR Biacore 8K+, biotinylated hFcRn on SA chip (~700 RU), pH 6.0, bivalent analyte fit.
Description: as §1

B1: TP003 (Fc fusion)
chain 1: DVQLVESGGGLVQPGGSLRLSCAASGLTFSTNPMYWYRQAPGKQRELVASISSRGITNYADSVKGRFTISRDNSKNTVYLQMNSLRPEDTAVYYCRLASLSSGTVYWGQGTLVTVSSDKTHTCPPCPAPEAAGGPSVFLFPPKPKDTLMISRTPEVTCVVVDVSQEDPEVQFNWYVDGVEVHNAKTKPREEQFNSTYRVVSVLTVLHQDWLNGKEYKCKVSNKGLPSSIEKTISKAKGQPREPQVYTLPPCQEEMTKNQVSLWCLVKGFYPSDIAVEWESNGQPENNYKTTPPVLDSDGSFFLYSKLTVDKSRWQEGNVFSCSVMHEALHNHYTQKSLSLSLG
chain 2: DVQLVESGGGLVQPGGSLRLSCAASGLTFSTNPMYWYRQAPGKQRELVASISSRGITNYADSVKGRFTISRDNSKNTVYLQMNSLRPEDTAVYYCRLASLSSGTVYWGQGTLVTVSSDKTHTCPPCPAPEAAGGPSVFLFPPKPKDTLMISRTPEVTCVVVDVSQEDPEVQFNWYVDGVEVHNAKTKPREEQFNSTYRVVSVLTVLHQDWLNGKEYKCKVSNKGLPSSIEKTISKAKGQPREPQVCTLPPSQEEMTKNQVSLSCAVKGFYPSDIAVEWESNGQPENNYKTTPPVLDSDGSFFLVSKLTVDKSRWQEGNVFSCSVMHEALHNHYTQKSLSLSLG
notes: IgG4 FALA Fc (knob-in-hole) with two N-terminal non-targeting ISVDs; also called control ISVD-Fc construct
For B1, the koff was 0.036 s⁻¹ in experiment [1], 0.0017 s⁻¹ in experiment [2], 0.000238 s⁻¹ in experiment [5] and 0.0098 s⁻¹ in [10]. The Kd in experiment [2] amounted to 3.6 nM; in [6], 39 nM; in [7], 3.09 nM; in [9], 77 nM. The kon in [2] stood at 460000 M⁻¹ s⁻¹; in [4], 77000 M⁻¹ s⁻¹; in [8], 250000 M⁻¹ s⁻¹; in experiment [13], 470000 M⁻¹ s⁻¹. Further, the ka2 in experiment [3] was 0.011 1/RUs; in [11], 0.15 1/RUs; in experiment [12], 100 1/RUs. The kd2 in experiment [3] is 0.0329 s⁻¹; in experiment [11], 2.4 s⁻¹; in experiment [12] it was 1900 s⁻¹.

B2: TP008 (Fc fusion)
chain 1: DVQLVESGGGLVQPGGSLRLSCAASGLTFSTNPMYWYRQAPGKQRELVASISSRGITNYADSVKGRFTISRDNSKNTVYLQMNSLRPEDTAVYYCRLASLSSGTVYWGQGTLVTVSSDKTHTCPPCPAPEAAGGPSVFLFPPKPKDTLMISRTPEVTCVVVDVSQEDPEVQFNWYVDGVEVHNAKTKPREEQFNSTYRVVSVLTVLHQDWLNGKEYKCKVSNKGLPSSIEKTISKAKGQPREPQVYTLPPCQEEMTKNQVSLWCLVKGFYPSDIAVEWESNGQPENNYKTTPPVLDSDGSFFLYSKLTVDKSRWQEGNVFSCSVMHEALHNHYTQKSLSLSLGGGGGSGGGGSGGGGSGGGGSGGGGSGGGGSGGGGSEVQLVESGGGLVQPGGSLRLSCAASGLTFSTNPMYWYRQAPGKQRELVASISSRGITNYADSVKGRFTISRDNSKNTVYLQMNSLRPEDTAVYYCRLASLSSGTVYWGQGTLVTVSS
chain 2: DKTHTCPPCPAPEAAGGPSVFLFPPKPKDTLMISRTPEVTCVVVDVSQEDPEVQFNWYVDGVEVHNAKTKPREEQFNSTYRVVSVLTVLHQDWLNGKEYKCKVSNKGLPSSIEKTISKAKGQPREPQVCTLPPSQEEMTKNQVSLSCAVKGFYPSDIAVEWESNGQPENNYKTTPPVLDSDGSFFLVSKLTVDKSRWQEGNVFSCSVMHEALHNHYTQKSLSLSLG
notes: IgG4 FALA Fc knob-in-hole
In the case of B2, the koff is 0.047 s⁻¹ in experiment [1], 0.0086 s⁻¹ in [2], 0.0198 s⁻¹ in [5] and 0.02 s⁻¹ in [10]. Moreover, the Kd in [2] came out at 4.3 nM; in experiment [6], 75 nM; in [7] it was 6.1 nM; in [9], 190 nM. The kon worked out at 2e+06 M⁻¹ s⁻¹ in experiment [2], 3.25e+06 M⁻¹ s⁻¹ in experiment [4], 270000 M⁻¹ s⁻¹ in [8] and 260000 M⁻¹ s⁻¹ in experiment [13]. In addition, the ka2 in [3] is 28.7 1/RUs; in experiment [11] it was 6.2e-05 1/RUs; in [12], 7.1 1/RUs. The values for the kd2 in experiment [3], in experiment [11] and in [12] were 51.1 s⁻¹, 0.0021 s⁻¹ and 120 s⁻¹, respectively.

B3: T-0263-00_TP118 (antibody, human IgG1, kappa)
heavy 1: not shown
heavy 2: EVQLVESGGGLVQPGGSLRLSCAASGFNIRDTYIHWVRQAPGKGLEWVARIYPTQGYTRYADSVKGRFTISADTSKNTAYLQMNSLRAEDTAVYYCSRWGGEGFYAMDYWGQGTLVTVSSASTKGPSVFPLAPSSKSTSGGTAALGCLVKDYFPEPVTVSWNSGALTSGVHTFPAVLQSSGLYSLSSVVTVPSSSLGTQTYICNVNHKPSNTKVDKKVEPKSCDKTHTCPPCPAPELLGGPSVFLFPPKPKDTLMISRTPEVTCVVVDVSHEDPEVKFNWYVDGVEVHNAKTKPREEQYNSTYRVVSVLTVLHQDWLNGKEYKCKVSNKALPAPIEKTISKAKGQPREPQVCTLPPSRDELTKNQVSLSCAVKGFYPSDIAVEWESNGQPENNYKTTPPVLDSDGSFFLVSKLTVDKSRWQQGNVFSCSVMHEALHNRFTQKSLSLSPG
light: not shown
notes: Full-length IgG1 knob-in-hole with a C-terminal irrelevant ISVD (9GS) on chain 1; control of TP121
With B3, in experiment [14], the kon was found to be 120000 M⁻¹ s⁻¹. This molecule also came in with a koff in experiment [15] of 0.15 s⁻¹. Besides, in experiment [16], the Kd turned out to be 1200 nM. Also, in experiment [17], the ka2 is 2.3e-05 1/RUs and the kd2 worked out at 0.00054 s⁻¹.
